According to paper PMC11480844:

B1: H2-Kb / B7 (parent)
chain 1: GQQVQQSPTSLVLQEGENAELQCNFSTSLNSMQWFYQRPGGSLVSVFYNPSGTKQSGRLTSTTVIKERRSSLHISSSQITDSGTYLCAMERDMGYKLTFGTGTSLLVDP
chain 2: EAAVTQSPRNKVAVTGGKVTLSCNQTNNHNNMYWYRQDTGHGLRLIHYSYGAGSTEKGDIPDGYKASRPSQENFSLILELATPSQTSVYFCASGDPGDQDTQYFGPGTRLLVL
chain 3: not shown
chain 4: IQKTPQIQVYSRHPPENGKPNILNCYVTQFHPPHIEIQMLKNGKKIPKVEMSDMSFSKDWSFYILAHTEFTPTETDTYACRVKHDSMAEPKTVYWDRDM
chain 5: SIINFEKL
B2: H2-Kb / G6 (parent)
chain 1: AQSVTQPDARVTVSEGASLQLRCKYSYFGTPYLFWYVQYPRQGLQLLLKYYPGDPVVQGVNGFEAEFSKSNSSFHLRKASVHWSDWAVYFCAVTPGGSNAKLTFGKGTKLSVKS
chain 2: NSGVVQSPRYIIKGKGERSILKCIPISGHLSVAWYQQTQGQELKFFIQHYDKMERDKGNLPSRFSVQQFDDYHSEMNMSALELEDSAVYFCASSRQGGDNNQAPLFGEGTRLSVL
chain 3: not shown
chain 4: B1 chain 4
chain 5: SIINFEKL

Variants of: B1
Experiment: % of reporter cells activated (NFAT-GFP), raw
Settings: with B7; scale: % of reporter cells activated
Also: test concentration or dose not given here.

Ratio to parent: each site, then its substitutions
chain 5 E6: M 0.985 | A 1.17 | H 1.65 | L 1 | G 1.45 | R 1.46 | S 1.38 | K 1.32 | I 1.14 | P 1.25 | D 1.43 | C 1.46 | F 1.52 | Q 0.754 | N 1.2

Variants of: B2
Experiment: % of reporter cells activated (NFAT-GFP), raw
Settings: with G6; scale: % of reporter cells activated

Ratio to parent: each site, then its substitutions
chain 5 I2: D 0.412 | Y 0.284 | K 0.551 | R 0.16 | V 0.292 | N 0.321 | W 0.185 | F 0.226 | M 0.214 | H 0.259 | T 0.305 | L 0.247 | G 0.288 | E 0.453 | Q 0.255 | C 0.239 | S 0.115 | P 0.329 | A 0.305
chain 5 I3: S 0.181 | H 0.288 | P 0.206 | M 0.465 | W 0.276 | Q 0.193 | N 0.181 | Y 0.272 | K 0.276 | A 0.333 | E 0.395 | V 1.18 | G 0.226 | R 0.109 | T 0.284 | L 0.926 | C 0.292 | D 0.239 | F 0.523
chain 5 E6: V 0.222 | M 0.551 | I 0.321 | S 0.428 | D 2.75 | F 0.914 | K 0.226 | Y 0.778 | P 0.189 | T 0.362 | C 0.21 | Q 0.292 | L 0.193 | H 0.494 | R 0.259 | A 0.724 | N 0.63 | W 7.22 | G 0.506
chain 5 L8: W 1.92 | Y 2.09 | E 0.173 | D 0.152 | C 0.251 | T 0.354 | K 0.292 | G 0.457 | P 0.206 | R 0.617 | S 0.086 | H 7.85 | V 0.56 | A 0.206 | Q 0.165 | I 0.819 | F 0.218 | M 0.267 | N 0.148
chain 5 K7: T 0.16 | C 0.272 | A 1.4 | I 0.358 | G 6.68 | H 0.292 | E 0.276 | V 0.235 | N 0.412 | S 0.963 | W 0.963 | R 14.4 | M 0.379 | L 0.259 | P 0.346 | Q 0.267 | D 0.202 | F 0.189 | Y 0.235
chain 5 N4: M 0.173 | D 0.267 | Q 0.128 | V 0.193 | L 0.284 | I 0.272 | F 0.202 | W 0.148 | G 0.239 | T 0.235 | C 0.177 | A 0.251 | R 0.255 | Y 0.14 | K 0.42 | S 0.193 | E 0.177 | P 0.198 | H 0.276
chain 5 S1: A 0.65 | D 0.395 | W 0.362 | V 1.09 | P 1.48 | T 0.222 | C 0.502 | Y 0.156 | M 0.284 | H 0.218 | L 3.02 | E 0.239 | F 0.449 | K 2.47 | R 1.64 | I 0.909 | Q 0.42 | N 0.239 | G 0.235
chain 5 F5: H 0.395 | A 0.383 | G 0.198 | C 0.609 | E 0.424 | V 0.116 | L 0.959 | M 1.34 | Y 0.576 | D 0.313 | T 0.177 | W 0.263 | S 0.362 | I 0.263 | P 0.272 | Q 2.04 | R 0.247 | N 0.3 | K 0.284
